Measured values from the Immune Epitope Database (IEDB).

Key:
HLA-A*24:02 [1] = assay: IEDB peptide-MHC binding, purified MHC/competitive/radioactivity; ≥ and ≤ were set here for values at or beyond the usual limits of such assays; settings: source organism: Homo sapiens
HLA-B*35:01 [2] = assay: IEDB peptide-MHC binding, cellular MHC/competitive/fluorescence; ≥ and ≤ were set here for values at or beyond the usual limits of such assays; settings: source organism: Influenza A virus H3N2
HLA-C*01:02 = assay: IEDB peptide-MHC binding, purified MHC/direct/fluorescence; filed as Kd, often an IC50 or EC50 that approximates it; ≥ and ≤ were set here for values at or beyond the usual limits of such assays; settings: source organism: Homo sapiens
HLA-B*18:01 = assay: IEDB peptide-MHC binding, purified MHC/competitive/fluorescence; ≥ and ≤ were set here for values at or beyond the usual limits of such assays; settings: source organism: Homo sapiens
HLA-A*25:01 = assay: as above; settings: source organism: Homo sapiens
HLA-B*40:02 = assay: as above; settings: source organism: Homo sapiens
HLA-B*44:03 = assay: as above; settings: source organism: Homo sapiens
HLA-B*58:01 = assay: as above; settings: source organism: Homo sapiens
HLA-A*31:01 = assay: as above; settings: source organism: Homo sapiens
HLA-B*07:02 = assay: as above; settings: source organism: Homo sapiens
HLA-B*51:01 = assay: as above; settings: source organism: Homo sapiens
HLA-A*01:01 = assay: as above; settings: source organism: Homo sapiens
HLA-B*37:01 = assay: as above; settings: source organism: Homo sapiens
HLA-A*29:02 = assay: as above; settings: source organism: Homo sapiens
HLA-B*08:01 = assay: as above; settings: source organism: Homo sapiens
HLA-B*53:01 = assay: as above; settings: source organism: Homo sapiens
HLA-B*14:02 = assay: as above; settings: source organism: Homo sapiens
HLA-A*68:02 = assay: as above; settings: source organism: Homo sapiens
HLA-A*11:01 = assay: as above; settings: source organism: Homo sapiens
HLA-B*35:01 [3] = assay: as above; settings: source organism: Homo sapiens
HLA-A*03:01 = assay: as above; settings: source organism: Homo sapiens
HLA-A*02:01 = assay: as above; settings: source organism: Homo sapiens
HLA-A*24:02 [4] = assay: as above; settings: source organism: Homo sapiens
HLA-C*14:02 = assay: IEDB peptide-MHC binding, purified MHC/direct/fluorescence; filed as Kd, often an IC50 or EC50 that approximates it; ≥ and ≤ were set here for values at or beyond the usual limits of such assays; settings: source organism: Homo sapiens
HLA-B*27:20 = assay: IEDB peptide-MHC binding, purified MHC/competitive/fluorescence; filed as Kd, often an IC50 or EC50 that approximates it; ≥ and ≤ were set here for values at or beyond the usual limits of such assays; settings: source organism: Yersinia pestis CO92
HLA-B*15:42 = assay: as above; settings: source organism: Yersinia pestis CO92
HLA-B*83:01 = assay: as above; settings: source organism: Yersinia pestis CO92
HLA-B*45:06 = assay: as above; settings: source organism: Yersinia pestis CO92
HLA-C*04:01 = assay: as above; settings: source organism: Yersinia pestis CO92

SFSTTINYTL
IC50 (HLA-A*24:02 [1]): 0.8 µM

LPFDKPTIM
IC50 (HLA-B*35:01 [2]): 1.6 µM

HLSSSQLQSL
Kd (HLA-C*01:02): ≤ 0.0001 µM

SLMASSPTSI
IC50 (HLA-B*18:01): ≥ 20 µM
IC50 (HLA-A*25:01): ≥ 20 µM
IC50 (HLA-B*40:02): ≥ 20 µM
IC50 (HLA-B*44:03): ≥ 20 µM
IC50 (HLA-B*58:01): ≥ 20 µM
IC50 (HLA-A*31:01): ≥ 20 µM
IC50 (HLA-B*07:02): 2.51 µM
IC50 (HLA-B*51:01): ≥ 20 µM
IC50 (HLA-A*01:01): ≥ 20 µM
IC50 (HLA-B*37:01): ≥ 20 µM
IC50 (HLA-A*29:02): 1.21 µM
IC50 (HLA-B*08:01): ≥ 20 µM
IC50 (HLA-B*53:01): ≥ 20 µM
IC50 (HLA-B*14:02): ≥ 20 µM
IC50 (HLA-A*68:02): 1.01 µM
IC50 (HLA-A*11:01): ≥ 20 µM
IC50 (HLA-B*35:01 [3]): ≥ 20 µM
IC50 (HLA-A*03:01): ≥ 20 µM
IC50 (HLA-A*02:01): 0.0208 µM
IC50 (HLA-A*24:02 [4]): 1.24 µM
Kd (HLA-C*14:02): 1.12 µM

FRDRGQHVL
Kd (HLA-B*27:20): 0.0004 µM
Kd (HLA-B*15:42): ≥ 5 µM
Kd (HLA-B*83:01): ≥ 5 µM
Kd (HLA-B*45:06): ≥ 5 µM
Kd (HLA-C*04:01): ≥ 5 µM
